Article PMC11603075

Molecular target: KDM4E (human)

Row | KM of KDM4E catalysed demethylation, formaldehyde dehydrogenase (FDH) coupled assay [µM] | Substance
1 | 20.7 | H3(1–21)R2me2a (from UniProt P68431 2-22) (peptide)
2 | 5.18 | H2a(1–20)R3me2a (from UniProt P0C0S8 2-21) (peptide)
